The source of these data is the DeepSol protein solubility set.

The nature of this data set: soluble on expression in E. coli; label from the status in PepcDB or PDB records.
For “AAASFGQTKIPRGNGPYSVGCTDLMFDHTNKGTFLRLYYPSQDNDRLDTLWIPNKEYFWGLSKFLGTHWLMGNILRLLFGSMTTPANWNSPLRPGEKYPLVVFSHGLGAFRTLYSAIGIDLASHGFIVAAVEHRDRSASATYYFKDQSAAEIGDKSWLYLRTLKQEEETHIRNEQVRQRAKECSQALSLILDIDHGKPVKNALDLKFDMEQLKDSIDREKIAVIGHSFGGATVIQTLSEDQRFRCGIALDAWMFPLGDEVYSRIPQPLFFINSEYFQYPANIIKMKKCYSPDKERKMITIRGSVHQNFADFTFATGKIIGHMLKLKGDIDSNVAIDLSNKASLAFLQKHLGLHKDFDQWDCLIEGDDENLIPGTNINTTNQHI”, the “soluble on expression in E. coli” value is “soluble”.

With “AALAEIVAQLNIYQSQVELIQQQMEAVRATISELEILEKTLSDIQGKDGSETLVPVGAGSFIKAELKDTSEVIMSVGAGVAIKKNFEDAMESIKSQKNELESTLQKMGENLRAITDIMMKLSPQAEELLAAVA”, the “soluble on expression in E. coli” value was “soluble”. For “AARQMEALNRGLVAVKTDGGIFVSWRFLGTENASVLFNVYRDGQKLNAAPVKTTNYVDKNGSAGSTYTVRAVVNGTEQPASEKASVWAQPYHSVPLDKPAGGTTPKGESYTYSANDASVGDVDGDGQYELILKWDPSNSKDNSQDGYTGDVLIDAYKLDGTKLWRINLGKNIRAGAHYTQFMVYDLDGDGKAEVAMKTADGTKDGTGKVIGNANADYRNEQGRVLSGPEYLTVFQGSTGKELVTANFEPARGNVSDWGDSYGNRVDRFLAGIAYLDGQRPSLIMTRGYYAKTMLVAYNFRDGKLSKLWTLDSSKSGNEAFAGQGNHNLSIADVDGDGKDEIIFGSMAVDHDGKGMYSTGLGHGDALHTGDLDPGRPGLEVFQVHEDKNAKYGLSFRDAATGKILWGVYAGKDVGRGMAADIDPRYPGQEVWANGSLYSAKGVKIGSGVPSSTNFGIWWDGDLLREQLDSNRIDKWDYQNGVSKNMLTASGAAANNGTKATPTLQADLLGDWREEVVWRTEDSSALRIYTTTIPTEHRLYTLMHDPVYRLGIAWQNIAYNQPPHTSFFLGDGMAEQPKPNMYTPLEHHHHHH” the value was “soluble”; for “ACRISPGQINQVRPKLPLLKILHAAGAQGEMFTVKEVMHYLGQYIMVKQLYDQQEQHMVYCGGDLLGELLGRQSFSVKDPSPLYDMLRKNLVTLATATTDA”, “soluble”; for “ADPLAATTVADLPVYNGEDVWQRVAQRCRLVDGQGVNERIARQRDWLLNNRGFLTGASKRATPYLHFIVERLDERNMPLELALLPMIESSYNPLANSPAAAAGLWQFIPSTGRQFNLNQSATYDARRDVVASSKAAMDYLTRLHDQFNNDWLLALAAYNAGEGTVARAIDANRRRGMPVDYWHLNLPRETQDYVPRLLALSLVVRNPGAYGVQLTPVANMPYFDVVELNHTVDLTQLAATTGVDEAQLLRLNPAFLRKKTPDGPGRLLIPKTHTQVLTAGIERITGESPTTAVIPASPGKRVIEREPSSQVAERAPTPEPLQAAGREQTAGLMQVLEREPAPESVQPVRREPQPKVVQVARQEPLPGPAQPVQAAEQVTVSDPIQPARQASSQATNERSLLDRRIQKRLYIDDRSSPRKRDEIAYRDEPRELPNGPRVVVYASDPRQ”, “not soluble”. For “ADPVMLEIFNNRFMSVAEQMGYTLQNTAHSVNIKERLDFSCAIFDGKGNLIANAPHIPVHLGSMGECVKYLIRARSVEMTAGDVYLINSPYHGGTHLPDLTVVTPMSGNLGEILFYLASRGHHADVGGVTPGSMPPDSRTIEEEGVLSEGMKIVEQGRFLEEKLRLWLGSGKYPARNPDQNVADIRAQVAANEKGLQELHRMVEEFSLETVEAYMGHVQDNAEEAVRRVIDRLEDGEFTYPLDDGNAIKVKVKIDRENRNAKIDFSGTSSQLPSNFNAPASVCLAAVLYAFRTLVKSDIPLNAGCLRPLEIIIPEGSMLKPEPPASVVAGNVETSQYIVDAIFGALGSLAASQGTMNNFTFGNADFQYYETICGGSGAGPGFSGTDAVHTHMTNSRITDPEVLETRFPVLLEEFSIRQGSGGEGEFRGGNGVVRKFRFLKDMDAAILSSHRKFPPFGLKGGMPGKCGKNTLIRRDGSVIEAGGKAELKLKSEDVFVIETPGGGGYGRPENFRPEK” the value was “not soluble”; for “AEEPTGVFLKKPDSVSVETGKDAVVVAKVNGKELPDKPTIKWFKGKWLELGSKSGARFSFKESHNSASNVYTVELHIGKVVLGDRGYYRLEVKAKDTCDSCGFNIDVEAPR”, “soluble”; for “AELTCTDVSGLTAEEIQMRESLQYTDHSPYPDKTCANCQLYVPAESPDQCGGCQLIKGPIHPNGYCTSWVQKAT”, “soluble”. For “AEQDMYLLRQSFDKYKTVSAGVPWFSALFGRDSLITASQTLMLNPEIAKETLMLLAAYQGKHEDEWREEAPGKILHELRLGEMARCQEIPHTPYYGTVDATPLWLMLYSEYYSWTHDRETLEQLWPHALAAMDWIDRNMQPSGYLTYHRKSKRGLDNQGWKDSGDCIVDRKGDLANGSIALSEVQAYVYAAKTRLAEIARMKKRLDLFERWQEEARSLKERFNQDFWIEDQDFCALALDGAGKQVDSITSNPGHCLLLGIFTPERAYSVAERLRAPDMFNGWGIRTLSSLSPAYNPMGYHIGSVWPHDNSLIAMGLRSLGLIDQALEIFQGLLDMTSQQPYQRPPELFCGYERNGDRSPVQYPVACTPQAWATGSIFQ” the value was “not soluble”. For “AESGFRQHITANGESGFKAEPDRYHLYLSYACPWACRTLIMRKLKGLEKIISVSFSDPVMGKNGWSYGESGNETADHINHIHYLKELYLVARKDYTGRVTVPVLWDKKKKTIVNNESSEIMRMLNSEFNAFSSTDHDYYPKQWRQKIDEINQLVYENINN”, the “soluble on expression in E. coli” value is “not soluble”. For “AESLSGLSLKLVKKEPRQLELTWAGSRPRNPGGNLSYELHVLNQDEEWHQMVLEPRVLLTKLQPDTTYIVRVRTLTPLGPGPFSPDHEFRTSPP” the value was “soluble”. For “AFYYLSNFERALAWLAERYDDVLDAGEHAFVGAFGALPRASRALLVRMLMRKGPMFRASKLAYDEIGCPLAAAAPLVALGWIDPEPPLSLDALFALATKPELRDAFPDAPASGAVRKADWLDALRARHDGERPWAQWLPSIDDRVLRVTAAVDALCSRLRLMFFGNLHQDWSEFVLADLGLLQYETVAFAPSSRAFQRRDDVDAYLRLHACRELLEVWPADAPLAPLVEAAAAVDCGNAWLAMRRAKLTFSIGQACERRADWDGALAAYASSAWPGSRQRRVRVLERCERFDTALALADEAARAPENEAEAQQIARMLPRLRRRVGLPAGRAARAREIPRDSLELAHPGVPYPVEYVARDHLSRADAPVFYVENALINSLFGLLCWEPVFAAVPGAFFHPFQRGPADLHAPDFRARRAAQFDACLAQLDGTQYRDTIRRHYARKRGVQSPFVFWGALDETLLEHALACLPAEHLRLWFERLLDDVRGNRSGLPDLVRFWPAERRYELIEVKGPGDRLQDNQIRWLDYCVRHRMPVRVIDVRWSGDAQASSQDEGAL” the value was “not soluble”; for “AGVNDDMPLKECYRTMWLNIWNLAGSNLNAISNRVQYDSLPCTTRNKTWELERKMFAQVDRLFNQGKEEGVFKPLDNEVLSGLSFEASVALARKHALGFYQLDDDALEAAIEASWDAIIKH”, “not soluble”. For “AHHHHHHASAKWVCKICGYIYDEDAGDPDNGISPGTKFEELPDDWVCPICGAPKSEFEKLEDGSFLPYLSSPYPLYLINLMLMECPPDIYSFSTQNSNNQLKGLFMFKKKEYDRWMVEAKRTLASAYSDLREGYYEWASFKAQQAAELAVKAILRGLSFAPIGHSITKLLRELAENNIKGPKKILYFAMKLDRNYIALRYPDAYPEGPH” the value was “soluble”; for “AHHHHHHGSEKLEKTVDMNIQQMINLSVLELVKLGLKYGIFKAVSKKISYIDLLNQVDVPNKPLLKKLIDHLKLLGIIEETPTHLLLNSFSYEIRFPKEEHMYLLPDWIPSFEEIYRMVDFALITPNHPHVLMDFDKDADFWDLRLSSTFHEAYRILIAKLGEIGEGSRVLDIGCGSASPAYFGKLVGEEGEYVGVDYSPALLEIAKNRTEGLPVKLKEMDASLIKPKNKYDVAIMSFVLEYIENRRSALRNALDSLESGGKLIIVDAFKDEFRNVEALEFFEGLNSAFREYPSKKYIKEVILDEGFEVKFGDYGKAILLIEKL”, “soluble”.
